Laboratory results: article PMC13265731, “In vitro reconstitution defines the mechanistic basis of HSET motor activity regulation by IntraFlagellar Transport proteins” (Communications Biology, 2026)

B1: GFP-HSET (full-length N-terminal hexa-histidine-tagged GFP-HSET) (natural protein, human, UniProt Q9BW19 1-673, looked up)
chain: MDPQRSPLLEVKGNIELKRPLIKAPSQLPLSGSRLKRRPDQMEDGLEPEKKRTRGLGATTKITTSHPRVPSLTTVPQTQGQTTAQKVSKKTGPRCSTAIATGLKNQKPVPAVPVQKSGTSGVPPMAGGKKPSKRPAWDLKGQLCDLNAELKRCRERTQTLDQENQQLQDQLRDAQQQVKALGTERTTLEGHLAKVQAQAEQGQQELKNLRACVLELEERLSTQEGLVQELQKKQVELQEERRGLMSQLEEKERRLQTSEAALSSSQAEVASLRQETVAQAALLTEREERLHGLEMERRRLHNQLQELKGNIRVFCRVRPVLPGEPTPPPGLLLFPSGPGGPSDPPTRLSLSRSDERRGTLSGAPAPPTRHDFSFDRVFPPGSGQDEVFEEIAMLVQSALDGYPVCIFAYGQTGSGKTFTMEGGPGGDPQLEGLIPRALRHLFSVAQELSGQGWTYSFVASYVEIYNETVRDLLATGTRKGQGGECEIRRAGPGSEELTVTNARYVPVSCEKEVDALLHLARQNRAVARTAQNERSSRSHSVFQLQISGEHSSRGLQCGAPLSLVDLAGSERLDPGLALGPGERERLRETQAINSSLSTLGLVIMALSNKESHVPYRNSKLTYLLQNSLGGSAKMLMFVNISPLEENVSESLNSLRFASKVNQCVIGTAQANRK
notes: HSET (KIFC1), human mitotic kinesin-14, full length; Dimer by mass photometry (measured 232 ± 34 kDa, expected 210 kDa for the GFP-HSET dimer); also called KIFC1; kinesin-14; source: Sf9 insect cells, baculovirus, purified (Ni-NTA); not shown: GFP, N-terminal, kept

Key:
[1] = biological target: the molecule itself; test: mass photometry; in solution; pre-incubated 30 min at 30 °C (1.2 µM GFP-HSET, 2.4 µM IFT52/70) in 20 mM Na-Hepes pH 7.2, 150 mM NaCl, 2 mM MgCl2, 10% glycerol, 5 mM β-mercaptoethanol; measured at 2.5 nM GFP-HSET and 5 nM IFT52/70, alone or mixed, 25 °C
[2] = biological target: B1; test: cell-based or functional assay
[3] = biological target: B1; test: mass photometry; in solution; pre-incubated 30 min at 30 °C (1.2 µM GFP-HSET, 2.4 µM IFT52/70) in 20 mM Na-Hepes pH 7.2, 150 mM NaCl, 2 mM MgCl2, 10% glycerol, 5 mM β-mercaptoethanol; measured at 2.5 nM GFP-HSET and 5 nM IFT52/70, alone or mixed, 25 °C; conditions: both partners purified

Binder	stoichiometry N [1]	GFP-HSET (5 nM) fluorescence at microtubule minus ends relative to the lattice, with IFT52/70 (10 nM) (1.38 versus 2.34) [2]	stoichiometry N [3]
B1	2	–	–
IFT52/70 complex (SNAP-IFT52/SNAP-IFT70) (complex, SNAP-Surface Alexa Fluor 647 on the SNAP tag | SNAP-Surface Alexa Fluor 647 on the SNAP tag) chain 1: MEKELRSTILFNAYKKEVFTTNTGYKSLQKRLRSNWKIQSLKDEITSEKLIGVKLWITAGPREKFTAAEFEVLKKYLDSGGDILVMLGEGGESRFDTNINFLLEEYGIMVNNDAVVRNVYYKYFHPKEALVSDGVLNREISRAAGKAVPGVIDEENSGNNAQALTFVYPFGATLSVMKPAVAVLSTGSVCFPLNRPILAFYHSKNQGFGKLAVLGSCHMFSDQYLDKEENSKIMDVVFQWLTTGDIHLNQIDAEDPEISDYTMVPDTATLSEQLRVCLQEGDENPRDFTTLFDLSIYQLDTTCLPKVIKAHEELNVKHEPLQLVQPQFEMPLPALQPAVFPPSFRELPPPPLELFDLDETFSSEKARLAQITNKCTDEDLEFYVRKCGDILGVTSKLPKDQQDAKHILEHIFFQVVEFKKLNQEAH chain 2: MAGLSGAQIPDGEFTAVVYRLIRNARYAEAVQLLGGELQRSPRSRAGLSLLGYCYYRLQEFALAAECYEQLGQLHPELEQYRLYQAQALYKACLYAEATRVAFLLLDNPAYHSRVLRLQAAIKYSEGDLPGSRSLVEQLPSREGGEESGGENETDGQINLGCLLYKEGQYEAACSKFFAALQASGYQPDLSYNLALAYYSSRQYASALKHIAEIIERGIRQHPELGVGMTTEGIDVRSVGNTLVLHQTALVEAFNLKAAIEYQLRNYEAAQEALTDMPPRAEEELDPVTLHNQALMNMDARPTEGFEKLQFLLQQNPFPPETFGNLLLLYCKYEYFDLAADVLAENAHLIYKFLTPYLYDFLDAVITCQTAPEEAFIKLDGLAGMLTEVLRKLTIQVQEARHNRDDEAIKKAVNEYDETMEKYIPVLMAQAKIYWNLENYPMVEKIFRKSVEFCNDHDVWKLNVAHVLFMQENKYKEAIGFYEPIVKKHYDNILNVSAIVLANLCVSYIMTSQNEEAEELMRKIEKEEEQLSYDDPDKKMYHLCIVNLVIGTLYCAKGNYDFGISRVIKSLEPYNKKLGTDTWYYAKRCFLSLLENMSKHTIMLRDSVIQECVQFLEHCELHGRNIPAVIEQPLEEERMHVGKNTVTYESRQLKALIYEIIGWNI	–	1.7 fold	2 IFT52/70 dimers per GFP-HSET dimer
